According to IntAct's records for PubMed 23957209:

B1: NADPH oxidase organizer 1 (Homo sapiens), Q8NFA2-3 (parent)
chain: MAGPRYPVSVQGAALVQIKRLQTFAFSVRWSDGSDTFVRRSWDEFRQLKKTLKETFPVEAGLLRRSDRVLPKLLDAPLLGRVGRTSRGLARLQLLETYSRRLLATAERVARSPTITGFFAPQPLDLEPALPPGSRVILPTPEEQPLSRAAGRLSIHSLEAQSLRCLQPFCTQDTRDRPFQAQAQESLDVLLRHPSGWWLVENEDRQTAWFPAPYLEEAAPGQGREGGPSLGSSGPQFCASRAYESSRADELSVPAGARVRVLETSDRGWWLCRYGDRAGLLPAVLLRPEGLGALLSGTGFRGGDDPAGEARGFPEPSQATAPPPTVPTRPSPGAIQSRCCTVTRRALERRPRRQGRPRGCVDSVPHPTTEQ
partner: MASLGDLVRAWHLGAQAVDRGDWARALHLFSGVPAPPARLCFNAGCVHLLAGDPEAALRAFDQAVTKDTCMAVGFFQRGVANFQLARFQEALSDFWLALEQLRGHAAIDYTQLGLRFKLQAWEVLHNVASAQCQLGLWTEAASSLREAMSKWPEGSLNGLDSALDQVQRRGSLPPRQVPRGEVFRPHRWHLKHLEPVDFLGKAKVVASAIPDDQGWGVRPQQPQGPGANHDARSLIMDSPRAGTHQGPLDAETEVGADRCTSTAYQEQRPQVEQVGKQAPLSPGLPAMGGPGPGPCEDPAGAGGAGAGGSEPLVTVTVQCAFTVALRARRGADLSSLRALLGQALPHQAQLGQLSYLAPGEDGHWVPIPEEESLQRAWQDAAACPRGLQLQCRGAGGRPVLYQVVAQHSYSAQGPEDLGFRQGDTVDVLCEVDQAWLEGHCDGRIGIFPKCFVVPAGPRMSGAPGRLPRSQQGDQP
B2: NADPH oxidase organizer 1 (Homo sapiens), Q8NFA2-3 (parent)
chain: B1 chain
partner: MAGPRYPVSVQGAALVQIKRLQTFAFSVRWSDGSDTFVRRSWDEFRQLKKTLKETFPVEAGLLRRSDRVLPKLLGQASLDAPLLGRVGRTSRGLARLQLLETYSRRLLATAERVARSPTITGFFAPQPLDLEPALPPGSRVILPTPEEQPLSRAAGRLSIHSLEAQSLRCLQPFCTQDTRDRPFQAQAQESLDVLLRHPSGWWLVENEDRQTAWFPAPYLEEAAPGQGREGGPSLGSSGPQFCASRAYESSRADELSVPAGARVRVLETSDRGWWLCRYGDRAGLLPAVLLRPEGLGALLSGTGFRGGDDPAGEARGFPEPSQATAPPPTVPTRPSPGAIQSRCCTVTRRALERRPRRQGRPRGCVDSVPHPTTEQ
B3: NADPH oxidase organizer 1 (Homo sapiens), Q8NFA2-3 (parent)
chain: B1 chain
partner: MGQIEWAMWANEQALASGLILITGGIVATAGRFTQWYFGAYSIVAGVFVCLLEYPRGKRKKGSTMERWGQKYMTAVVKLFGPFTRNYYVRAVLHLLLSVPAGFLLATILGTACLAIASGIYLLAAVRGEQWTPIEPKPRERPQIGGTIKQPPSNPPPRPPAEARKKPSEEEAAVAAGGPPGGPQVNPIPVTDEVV
B4: NADPH oxidase activator 1 (Homo sapiens), Q86UR1 (parent)
chain: B1 partner
partner: B1 chain
B5: Cytochrome b-245 light chain (Homo sapiens), P13498 (parent)
chain: B3 partner
partner: B1 chain

Variants of: B1
Conditions: with noxa1_human NOXA1, Q86UR1

Row | effect of a mutation on the interaction | Variant
1 | disrupting interaction | MAGPRYPVSVQGAALVQIKRLQTFAFSVRWSDGSDTFVRRSWDEFRQLKKTLKETFPVEAGLLRRSDRVLPKLLDAPLLGRVGRTSRGLARLQLLETYSRRLLATAERVARSPTITGFFAPQPLDLEPALPPGSRVILPTPEEQPLSRAAGRLSIHSLEAQSLRCLQPFCTQDTRDRPFQAQAQESLDVLLRHPSGWWLVENEDRQTAWFPAPYLEEAAPGQGREGGPSLGSSGPQFCASRAYESSRADELSVPAGARVRVLETSDRGWWLCRYGDRAGLLPAVLLRPEGLGALLSGTGFRGGDDPAGEARGFPEPSQATAPPPTVPTRPSPGAIQSRCCTVARRALERRPRRQGRPRGCVDSVPHPTTEQ [T343A]

Variants of: B1
Conditions: with noxa1_human NOXA1, Q86UR1
Remark: another data set of the same source

Row | effect of a mutation on the interaction | Variant
2 | increasing interaction | MAGPRYPVSVQGAALVQIKRLQTFAFSVRWSDGSDTFVRRSWDEFRQLKKTLKETFPVEAGLLRRSDRVLPKLLDAPLLGRVGRTSRGLARLQLLETYSRRLLATAERVARSPTITGFFAPQPLDLEPALPPGSRVILPTPEEQPLSRAAGRLSIHSLEAQSLRCLQPFCTQDTRDRPFQAQAQESLDVLLRHPSGWWLVENEDRQTAWFPAPYLEEAAPGQGREGGPSLGSSGPQFCASRAYESSRADELSVPAGARVRVLETSDRGWWLCRYGDRAGLLPAVLLRPEGLGALLSGTGFRGGDDPAGEARGFPEPSQATAPPPTVPTRPSPGAIQSRCCDVTRRALERRPRRQGRPRGCVDSVPHPTTEQ [T341D]

Variants of: B1
Conditions: with noxa1_human NOXA1, Q86UR1
Remark: another data set of the same source

Row | effect of a mutation on the interaction | Variant
3 | disrupting interaction | MAGPRYPVSVQGAALVQIKRLQTFAFSVRWSDGSDTFVRRSWDEFRQLKKTLKETFPVEAGLLRRSDRVLPKLLDAPLLGRVGRTSRGLARLQLLETYSRRLLATAERVARSPTITGFFAPQPLDLEPALPPGSRVILPTPEEQPLSRAAGRLSIHSLEAQSLRCLQPFCTQDTRDRPFQAQAQESLDVLLRHPSGWWLVENEDRQTAWFPAPYLEEAAPGQGREGGPSLGSSGPQFCASRAYESSRADELSVPAGARVRVLETSDRGWWLCRYGDRAGLLPAVLLRPEGLGALLSGTGFRGGDDPAGEARGFPEPSQATAPPPTVPTRPSPGAIQSRCCAVTRRALERRPRRQGRPRGCVDSVPHPTTEQ [T341A]

Variants of: B1
Conditions: with noxa1_human NOXA1, Q86UR1
Remark: another data set of the same source

Row | effect of a mutation on the interaction | Variant
4 | increasing interaction | MAGPRYPVSVQGAALVQIKRLQTFAFSVRWSDGSDTFVRRSWDEFRQLKKTLKETFPVEAGLLRRSDRVLPKLLDAPLLGRVGRTSRGLARLQLLETYSRRLLATAERVARSPTITGFFAPQPLDLEPALPPGSRVILPTPEEQPLSRAAGRLSIHSLEAQSLRCLQPFCTQDTRDRPFQAQAQESLDVLLRHPSGWWLVENEDRQTAWFPAPYLEEAAPGQGREGGPSLGSSGPQFCASRAYESSRADELSVPAGARVRVLETSDRGWWLCRYGDRAGLLPAVLLRPEGLGALLSGTGFRGGDDPAGEARGFPEPSQATAPPPTVPTRPSPGAIQSRCCEVTRRALERRPRRQGRPRGCVDSVPHPTTEQ [T341E]

Variants of: B2
Conditions: with noxo1_human NOXO1, Q8NFA2

Row | effect of a mutation on the interaction | Variant
5 | disrupting interaction | MAGPRYPVSVQGAALVQIKRLQTFAFSVRWSDGSDTFVRRSWDEFRQLKKTLKETFPVEAGLLRRSDRVLPKLLDAPLLGRVGRTSRGLARLQLLETYSRRLLATAERVARSPTITGFFAPQPLDLEPALPPGSRVILPTPEEQPLSRAAGRLSIHSLEAQSLRCLQPFCTQDTRDRPFQAQAQESLDVLLRHPSGRWLVENEDRQTAWFPAPYLEEAAPGQGREGGPSLGSSGPQFCASRAYESSRADELSVPAGARVRVLETSDRGWWLCRYGDRAGLLPAVLLRPEGLGALLSGTGFRGGDDPAGEARGFPEPSQATAPPPTVPTRPSPGAIQSRCCTVTRRALERRPRRQGRPRGCVDSVPHPTTEQ [W197R]

Variants of: B3
Conditions: with cy24a_human CYBA, P13498

Row | effect of a mutation on the interaction | Variant
6 | decreasing interaction | MAGPRYPVSVQGAALVQIKRLQTFAFSVRWSDGSDTFVRRSWDEFRQLKKTLKETFPVEAGLLRRSDRVLPKLLDAPLLGRVGRTSRGLARLQLLETYSRRLLATAERVARSPTITGFFAPQPLDLEPALPPGSRVILPTPEEQPLSRAAGRLSIHSLEAQSLRCLQPFCTQDTRDRPFQAQAQESLDVLLRHPAGWWLVENEDRQTAWFPAPYLEEAAPGQGREGGPSLGSSGPQFCASRAYESSRADELSVPAGARVRVLETSDRGWWLCRYGDRAGLLPAVLLRPEGLGALLSGTGFRGGDDPAGEARGFPEPSQATAPPPTVPTRPSPGAIQSRCCTVTRRALERRPRRQGRPRGCVDSVPHPTTEQ [S195A]

Variants of: B3
Conditions: with cy24a_human CYBA

Row | effect of a mutation on the interaction | Variant
7 | decreasing interaction | MAGPRYPVSVQGAALVQIKRLQTFAFSVRWSDGSDTFVRRSWDEFRQLKKTLKETFPVEAGLLRRSDRVLPKLLDAPLLGRVGRTSRGLARLQLLETYSRRLLATAERVARSPTITGFFAPQPLDLEPALPPGSRVILPTPEEQPLSRAAGRLSIHSLEAQSLRCLQPFCTQDTRDRPFQAQAQESLDVLLRHPEGWWLVENEDRQTAWFPAPYLEEAAPGQGREGGPSLGSSGPQFCASRAYESSRADELSVPAGARVRVLETSDRGWWLCRYGDRAGLLPAVLLRPEGLGALLSGTGFRGGDDPAGEARGFPEPSQATAPPPTVPTRPSPGAIQSRCCTVTRRALERRPRRQGRPRGCVDSVPHPTTEQ [S195E]

Variants of: B3
Conditions: with cy24a_human CYBA
Remark: another data set of the same source

Row | effect of a mutation on the interaction | Variant
8 | decreasing interaction | MAGPRYPVSVQGAALVQIKRLQTFAFSVRWSDGSDTFVRRSWDEFRQLKKTLKETFPVEAGLLRRSDRVLPKLLDAPLLGRVGRTSRGLARLQLLETYSRRLLATAERVARSPTITGFFAPQPLDLEPALPPGSRVILPTPEEQPLSRAAGRLSIHSLEAQSLRCLQPFCTQDTRDRPFQAQAQESLDVLLRHPDGWWLVENEDRQTAWFPAPYLEEAAPGQGREGGPSLGSSGPQFCASRAYESSRADELSVPAGARVRVLETSDRGWWLCRYGDRAGLLPAVLLRPEGLGALLSGTGFRGGDDPAGEARGFPEPSQATAPPPTVPTRPSPGAIQSRCCTVTRRALERRPRRQGRPRGCVDSVPHPTTEQ [S195D]

Variants of: B4
Conditions: with NOXO1, Q8NFA2-3

Row | effect of a mutation on the interaction | Variant
9 | disrupting interaction | MASLGDLVRAWHLGAQAVDRGDWARALHLFSGVPAPPARLCFNAGCVHLLAGDPEAALRAFDQAVTKDTCMAVGFFQRGVANFQLARFQEALSDFWLALEQLRGHAAIDYTQLGLRFKLQAWEVLHNVASAQCQLGLWTEAASSLREAMSKWPEGSLNGLDSALDQVQRRGSLPPRQVPRGEVFRPHRWHLKHLEPVDFLGKAKVVASAIPDDQGWGVRPQQPQGPGANHDARSLIMDSPRAGTHQGPLDAETEVGADRCTSTAYQEQRPQVEQVGKQAPLSPGLPAMGGPGPGPCEDPAGAGGAGAGGSEPLVTVTVQCAFTVALRARRGADLSSLRALLGQALPHQAQLGQLSYLAPGEDGHWVPIPEEESLQRAWQDAAACPRGLQLQCRGAGGRPVLYQVVAQHSYSAQGPEDLGFRQGDTVDVLCEVDQARLEGHCDGRIGIFPKCFVVPAGPRMSGAPGRLPRSQQGDQP [W436R]

Variants of: B5
Conditions: with NOXO1, Q8NFA2-3

Row | effect of a mutation on the interaction | Variant
10 | disrupting interaction | MGQIEWAMWANEQALASGLILITGGIVATAGRFTQWYFGAYSIVAGVFVCLLEYPRGKRKKGSTMERWGQKYMTAVVKLFGPFTRNYYVRAVLHLLLSVPAGFLLATILGTACLAIASGIYLLAAVRGEQWTPIEPKPRERPQIGGTIKQPPSNPQPRPPAEARKKPSEEEAAVAAGGPPGGPQVNPIPVTDEVV [P156Q]
